Results from paper doi:10.64898/2025.12.22.695686.

Key:
[1] = target: Sgs3-MD (Sgs3 mucin domain repeat peptide) (Drosophila melanogaster)
[2] = target: Sgs1-MD (Sgs1 mucin domain repeat peptide) (Drosophila melanogaster)

| KM for the acceptor peptide Sgs3-MD, Michaelis-Menten kinetics of O-glycosylation (UDP-Glo assay), fold against the corresponding Sgs1-MD parameter [1] [fold lower] | KM for the acceptor peptide Sgs1-MD, Michaelis-Menten kinetics of O-glycosylation (UDP-Glo assay), fold against PGANT5B^WT [2] [fold lower] | KM for the acceptor peptide Sgs1-MD, Michaelis-Menten kinetics of O-glycosylation (UDP-Glo assay), fold against PGANT5A^WT [2] [fold higher] | KM for the acceptor peptide Sgs1-MD, Michaelis-Menten kinetics of O-glycosylation (UDP-Glo assay), fold against PGANT5B^WT (fold decrease) [2] | Binder |
| --- | --- | --- | --- | --- |
| 10 | 0.7 |  |  | PGANT5A^WT (amino acids 77–626) (enzyme) NEINTEKSLDGESGGALIMGQGFASGGISMTYPSVVLKKWFLAPSVQEAKGKPGEMGKPVKIPADMKDLMKEKFKENQFNLLASDMISLNRSLTDVRHEGCRRKHYASKLPTTSIVIVFHNEAWTTLLRTVWSVINRSPRALLKEIILVDDASERDFLGKQLEEYVAKLPVKTFVLRTEKRSGLIRARLLGAEHVSGEVITFLDAHCECTEGWLEPLLARIVQNRRTVVCPIIDVISDETFEYITASDSTWGGFNWKLNFRWYRVPSREMARRNNDRTAPLRTPTMAGGLFSIDKDYFYEIGSYDEGMDIWGGENLEMSFRIWQCGGILEIIPCSHVGHVFRDKSPYTFPGGVAKIVLHNAARVAEVWLDEWRDFYYSMSTGARKASAGDVSDRKALRDRLKCKSFRWYLENVYPESLMPLDYYYLGEIRNAETETCLDTMGRKYNEKVGISYCHGLGGNQVFAYTKRQQIMSDDLCLDASSSNGPVNMVRCHNMGGNQEWVYDAEEKWIRHTNTGQCLQRATRDDANTPLLRPCSYGKGQQWLMESKFK |
| 10 |  | 0.6 |  | PGANT5A^D419K (amino acids 77–626) (enzyme) NEINTEKSLDGESGGALIMGQGFASGGISMTYPSVVLKKWFLAPSVQEAKGKPGEMGKPVKIPADMKDLMKEKFKENQFNLLASDMISLNRSLTDVRHEGCRRKHYASKLPTTSIVIVFHNEAWTTLLRTVWSVINRSPRALLKEIILVDDASERDFLGKQLEEYVAKLPVKTFVLRTEKRSGLIRARLLGAEHVSGEVITFLDAHCECTEGWLEPLLARIVQNRRTVVCPIIDVISDETFEYITASDSTWGGFNWKLNFRWYRVPSREMARRNNDRTAPLRTPTMAGGLFSIDKDYFYEIGSYDEGMDIWGGENLEMSFRIWQCGGILEIIPCSHVGHVFRKKSPYTFPGGVAKIVLHNAARVAEVWLDEWRDFYYSMSTGARKASAGDVSDRKALRDRLKCKSFRWYLENVYPESLMPLDYYYLGEIRNAETETCLDTMGRKYNEKVGISYCHGLGGNQVFAYTKRQQIMSDDLCLDASSSNGPVNMVRCHNMGGNQEWVYDAEEKWIRHTNTGQCLQRATRDDANTPLLRPCSYGKGQQWLMESKFK |
| 10 |  |  | 2 | PGANT5B^K419D (amino acids 77–626) (enzyme) NEINTEKSLDGESGGALIMGQGFASGGISMTYPSVVLKKWFLAPSVQEAKGKPGEMGKPVKIPADMKDLMKEKFKENQFNLLASDMISLNRSLTDVRHEGCRRKHYASKLPTTSIVIVFHNEAWTTLLRTVWSVINRSPRALLKEIILVDDASERDFLGKQLEEYVAKLPVKTFVLRTEKRSGLIRARLLGAEHVSGEVITFLDAHCECTEGWLEPLLARIVQNRRTVVCPIIDVISDETFEYITASDSTWGGFNWKLNFRWYRVPSREMARRNNDRTAPLRTPTMAGGLFSIDKDYFYEIGSYDEGMDIWGGENLEMSFRVWMCGGVLEIAPCSRVGHVFRDSTPYTFPGGTTEIVNHNNARLVEVWLDDWKEFYYSFYPGARKASAGDVSDRKALRDRLKCKSFRWYLENVYPESLMPLDYYYLGEIRNAETETCLDTMGRKYNEKVGISYCHGLGGNQVFAYTKRQQIMSDDLCLDASSSNGPVNMVRCHNMGGNQEWVYDAEEKWIRHTNTGQCLQRATRDDANTPLLRPCSYGKGQQWLMESKFK |
| 10 |  |  |  | PGANT5B^WT (amino acids 77–626) (enzyme) NEINTEKSLDGESGGALIMGQGFASGGISMTYPSVVLKKWFLAPSVQEAKGKPGEMGKPVKIPADMKDLMKEKFKENQFNLLASDMISLNRSLTDVRHEGCRRKHYASKLPTTSIVIVFHNEAWTTLLRTVWSVINRSPRALLKEIILVDDASERDFLGKQLEEYVAKLPVKTFVLRTEKRSGLIRARLLGAEHVSGEVITFLDAHCECTEGWLEPLLARIVQNRRTVVCPIIDVISDETFEYITASDSTWGGFNWKLNFRWYRVPSREMARRNNDRTAPLRTPTMAGGLFSIDKDYFYEIGSYDEGMDIWGGENLEMSFRVWMCGGVLEIAPCSRVGHVFRKSTPYTFPGGTTEIVNHNNARLVEVWLDDWKEFYYSFYPGARKASAGDVSDRKALRDRLKCKSFRWYLENVYPESLMPLDYYYLGEIRNAETETCLDTMGRKYNEKVGISYCHGLGGNQVFAYTKRQQIMSDDLCLDASSSNGPVNMVRCHNMGGNQEWVYDAEEKWIRHTNTGQCLQRATRDDANTPLLRPCSYGKGQQWLMESKFK |
